Data: US20230147962A1, “FIBROBLAST ACTIVATION PROTEIN LIGANDS FOR TARGETED DELIVERY APPLICATIONS” (PHILOCHEM AG, priority 2020, published 2023)

What was measured:
[1] = tested on: SK-RC-52.hFAP and SK-RC-52.wt xenografts; experiment: Ex vivo targeting experiment, SK-RC-52.hFAP and SK-RC-52.wt xenografts; format: in vivo, BALB/C nu/nu mice; details: 40 nmol intravenous, ex vivo organ images 1 h
Protocol: (§1) SK-RC-52.hFAP, HT-1080.hFAP, SK-RC-52.wt cells were grown to 80% confluence and detached with Trypsin-EDTA 0.05%. Cells were re-suspended in HBSS medium to a final concentration of 5×10^7 cells/mL. […] SK-MEL-187 cells were grown to 80% confluence and detached with Trypsin-EDTA 0.05%. Cells were re-suspended in a 1:1 mixture of HBSS:Matrigel to a final concentration of 10×10^7 cells/mL.
(§2) Mice bearing subcutaneous SK-RC-52.hFAP or HT-1080.hFAP tumors on the right flank and SK-RC-52.wt tumor on the left flank were injected intravenously with conjugate 30 (40 nmol in sterile PBS, pH 7.4). […] Cryostat sections ([…]) were cut and nuclei were stained with Fluorescence Mounting Medium (Dako Omnis, Agilent). Images were obtained using an Axioskop2 mot plus microscope (Zeiss) and analyzed by ImageJ 1.53 software.

[2] = tested on: HT-1080.hFAP and SK-RC-52.wt xenografts; experiment: Ex vivo targeting experiment, HT-1080.hFAP and SK-RC-52.wt xenografts; format: in vivo, BALB/C nu/nu mice; details: 40 nmol intravenous, ex vivo organ images 1 h
Protocol: as §1, §2

[3] = tested on: SK-RC-52.hFAP and SK-RC-52.wt tumours; details: 250 nmol/kg, 6 hours after intravenous administration
Protocol: (§3) SK-RC-52.hFAP (right flank) and SK-RC-52.wt (left flank) xenografted tumors were implanted into female athymic BALB/C nu/nu mice (6-8 weeks of age) as described above, and allowed to grow to an average volume of 0.1 mL.
(§4) Frozen organs were cutted with a scalpel (50 mg), and suspended in 600 μL of 95:5 Acetonitrile/water (0.1% TFA). A solution of D8-MMAE in 3:97 Acetonitrile/water (0.1% FA; internal standard, 50 μL, 50 nM) was added. The samples were mechanically lysed with a Tissue Lyser II (Qiagen, 30 Hz shaking, 15 minutes). Plasma samples (50 μL) were added with a solution of D8-MMAE in 3:97 Acetonitrile/water (0.1% FA; internal standard, 50 μL, 50 nM) and proteins were precipitated by addition of 600 μL of 95:5 Acetonitrile/water (0.1% TFA). Proteins from both organs and plasma samples were pelleted by centrifugation and supernatants were dried with a vacuum centrifuge. Solid remanences were resuspended in 1 mL of 3:97 Acetonitrile/water (0.1% TFA) and solutions were cleaned up through a first purification step on HBL Oasis columns and a second purification on C18 Macro Spin Columns. Purified dried eluates were resuspended in 150 μL of 3:97 Acetonitrile/water (0.1% FA) and analyzed by MS. All samples were analysed by liquid chromatography-tandem mass spectrometry (LC-MS/MS) using a Q Exactive Mass Spectrometer fitted with an EASY-nLC 1000 (both Thermo Fisher Scientific). Analytes were resolved with an Acclaim PepMap RSLC C18, 50 m×150 mm, 2 m analytical column (Thermo Fisher Scientific) at a flow rate of 0.3 It/min by running a linear gradient from 3% to 50% ACN over 60 min. All buffers contained 0.1% formic acid. MS spectra were recorded in SIM scan mode with a resolution of 70000 and a maximum injection time of 100 ms. MS/MS were recorded at a resolution of 35000 and a maximum injection time of 250 ms.
(§5) Raw files were then analysed with the Skyline software. MS1 areas of the two ions were used for quantification.

in vivo = details: female, BALB/C nu/nu, mouse, iv, 250 nmol/kg
Protocol: as §3, §4, §5

SK-MEL-187 tumour = details: 250 nmol/kg daily for 7 consecutive days
Protocol: SK-MEL-187 xenografted tumours were implanted into female athymic BALB/C nu/nu mice (6-8 weeks of age) as described above, and allowed to grow to an average volume of 0.1 mL. Mice were randomly assigned into therapy groups of 3 animals. […] Tumours were measured with an electronic caliper and animals were weighted daily. Tumour volume (mm^3) was calculated with the formula (long side, mm)×(short side, mm)×(short side, mm)×0.5 (FIG. 8). Prism 6 software (GraphPad Software) was used for data analysis (regular two-way ANOVA followed by Bonferroni test).

SK-RC-52.hFAP tumour = experiment: Therapy experiment in SK-RC-52.hFAP tumour bearing mice; details: 500 nmol/kg intravenously from day 8 for 6 consecutive days
Protocol: SK-RC-52.hFAP xenografted tumors were implanted into female athymic BALB/C nu/nu mice (6-8 weeks of age) as described above, and allowed to grow to an average volume of 0.1 mL.
Mice were randomly assigned into 8 therapy groups of 4 animals each (5 single-agent groups, 2 combination groups and vehicle group). […] L19-IL2 was diluted at 330 μg/mL in the appropriate formulation buffer and intravenously administered at the dose of 2.5 mg/kg.
Mice in single-agent groups received daily injections of ESV6-ValCit-MMAE, QCOOH-ValCit-MMAE or L 19-IL2.
Mice in combination groups received daily injections of ESV6-ValCit-MMAE on day 8,10 and 12 after tumor implantation, and of L 19-IL2 on day 9,11 and 13 after tumor implantation.
Tumors were measured with an electronic caliper and animals were weighted daily. Tumor volume (mm^3) was calculated with the formula (long side, mm)×(short side, mm)×(short side, mm)×0.5.
Prism 6 software (GraphPad Software) was used for data analysis (regular two-way ANOVA followed by Bonferroni test).

SMILES | targeting performance, SK-RC-52.hFAP and SK-RC-52.wt xenografts [1] | targeting performance, HT-1080.hFAP and SK-RC-52.wt xenografts [2] | accumulation in FAP-negative SK-RC-52 wild type tumours [3] | uptake at the tumour site (FAP-positive SK-RC-52) [3] [% ID/g] | uptake in healthy organs [3] | tissue uptake at 6 h (in vivo; SK-RC-52.hFAP tumour (FAP-positive)) [%ID/g] | tissue uptake at 6 h (in vivo; healthy organs) [%ID/g] | anti-tumour effect (mean tumour volume) (SK-MEL-187 tumour) | tolerability (changes in body weight), acute toxicity (SK-MEL-187 tumour) | anti-tumour effect (mean tumour volume) (SK-RC-52.hFAP tumour)
N#C[C@@H]1CC(F)(F)CN1C(=O)CNC(=O)c1ccnc2c(NC(=O)CCC(=O)N[C@@H](CC(=O)O)C(=O)N[C@@H](CCCCN)C(=O)N[C@@H](CC(=O)O)C(=O)N[C@@H](CSC3CC(=O)N(CCCCCNC(=O)c4ccc5c(c4)C(=O)OC54c5ccc(N)c(S(=O)(=O)O)c5Oc5c4ccc(N)c5S(=O)(=O)O)C3=O)C(=O)O)cccc12 (stereo in doubt) [conjugate 30, ESV6-Alexa Fluor 488] | localises rapidly, homogeneously and selectively in vivo at the tumour which presents FAP expression 1 hour after the intravenous injection, with an excellent tumour-to-organs selectivity | rapidly, homogeneously and selectively localizes in vivo at the tumour which presents FAP expression 1 hour after the intravenous injection, with an excellent tumour-to-organs selectivity | – | – | – | – | – | – | – | –
CC[C@H](C)[C@@H]([C@@H](CC(=O)N1CCC[C@H]1[C@H](OC)[C@@H](C)C(=O)N[C@H](C)[C@@H](O)c1ccccc1)OC)N(C)C(=O)[C@@H](NC(=O)[C@H](C(C)C)N(C)C(=O)OCc1ccc(NC(=O)[C@H](CCCNC(N)=O)NC(=O)[C@@H](NC(=O)CCCCCN2C(=O)CC(SC[C@H](NC(=O)[C@H](CC(=O)O)NC(=O)[C@H](CCCCN)NC(=O)[C@H](CC(=O)O)NC(=O)CCC(=O)Nc3cccc4c(C(=O)NCC(=O)N5CC(F)(F)C[C@H]5C#N)ccnc34)C(=O)O)C2=O)C(C)C)cc1)C(C)C (stereo partly shown) [ESV6-ValCit-MMAE] | – | – | does not accumulate in FAP-negative SK-RC-52 wild type tumours | 18 | lower than 1 % ID/g | 18 | < 1 | more potent anti-tumour effect as compared with HABERKORN-ValCit-MMAE | lower acute toxicity as compared to HABERKORN-ValCit-MMAE | more potent anti-tumour effect as compared with QCOOH-ValCit-MMAE
